Assay results reported in publication PMC6615629, “Hsp70-nucleotide exchange factor (NEF) Fes1 has non-NEF roles in degradation of gluconeogenic enzymes and cell wall integrity” (PLoS Genetics, 2019).
Where a chain is given by its changes, count along the chain named. In names and notes the source's numbering stands.

B1: His6-Fbp1ΔP2 (enzyme, yeast (S. cerevisiae), UniProt P09201 1-348, looked up)
chain: MTLVNGPRRDSTEGFDTDIITLPRFIIEHQKQFKNATGDFTLVLNALQFAFKFVSHTIRRAELVNLVGLAGASNFTGDQQKKLDVLGDEIFINAMRASGIIKVLVSEEQEDLIVFPTNTGSYAVCCDPIDGSSNLDAGVSVGTIASIFRLLPDSSGTINDVLRCGKEMVAACYAMYGSSTHLVLTLGDGVDGFTLDTNLGEFILTHPNLRIPPQKAIYSINEGNTLYWNETIRTFIEKVKQPQADNNNKPFSARYVGSMVADVHRTFLYGGLFAYPCDKKSPNGKLRLLYEAFPMAFLMEQAGGKAVNDRGERILDLVPSHIHDKSSIWLGSSGEIDKFLDHIGKSQ
notes: Fbp1, yeast gluconeogenic enzyme, proline 2 deleted; the initiator methionine is counted as residue 1; also called Fbp1P2Δ; source: E. coli expression, purified; not shown: His6, N-terminal, kept
B2: His6-Fbp1 P2A (enzyme, yeast (S. cerevisiae), UniProt P09201 1-348, looked up)
chain: MATLVNGPRRDSTEGFDTDIITLPRFIIEHQKQFKNATGDFTLVLNALQFAFKFVSHTIRRAELVNLVGLAGASNFTGDQQKKLDVLGDEIFINAMRASGIIKVLVSEEQEDLIVFPTNTGSYAVCCDPIDGSSNLDAGVSVGTIASIFRLLPDSSGTINDVLRCGKEMVAACYAMYGSSTHLVLTLGDGVDGFTLDTNLGEFILTHPNLRIPPQKAIYSINEGNTLYWNETIRTFIEKVKQPQADNNNKPFSARYVGSMVADVHRTFLYGGLFAYPCDKKSPNGKLRLLYEAFPMAFLMEQAGGKAVNDRGERILDLVPSHIHDKSSIWLGSSGEIDKFLDHIGKSQ
notes: Fbp1, yeast gluconeogenic enzyme, P2A; the initiator methionine is counted as residue 1; source: E. coli expression, purified; not shown: His6, N-terminal, kept
B3: His6-Fbp1^P2A,S12A,T13A (enzyme, yeast (S. cerevisiae), UniProt P09201 1-348, looked up)
chain: B2 chain with S12A, T13A
notes: Fbp1, yeast gluconeogenic enzyme, P2A,S12A,T13A; the initiator methionine is counted as residue 1; source: E. coli expression, purified; not shown: His6, N-terminal, kept
B4: His6-Fbp1 (enzyme, yeast (S. cerevisiae), UniProt P09201 1-348, looked up)
chain: B2 chain with A2P
notes: Fbp1, yeast gluconeogenic enzyme; the initiator methionine is present in the purified protein and is counted as residue 1; also called wild type His6-Fbp1; not shown: His6, N-terminal, kept
B5: GST-Fes1^A79R,R195A (natural protein, yeast (S. cerevisiae), UniProt P38260 1-290, looked up)
chain: MEKLLQWSIANSQGDKEAMARAGQPDPKLLQQLFGGGGPDDPTLMKESMAVIMNPEVDLETKLVAFDNFEMLIENLDNRNNIENLKLWEPLLDVLVQTKDEELRAAALSIIGTAVQNNLDSQNNFMKYDNGLRSLIEIASDKTKPLDVRTKAFYALSNLIRNHKDISEKFFKLNGLDCIAPVLSDNTAKPKLKMAAIALLTAYLSSVKIDENIISVLRKDGVIESTIECLSDESNLNIIDRVLSFLSHLISSGIKFNEQELHKLNEGYKHIEPLKDRLNEDDYLAVKYVL
notes: Fes1, yeast Hsp70 nucleotide exchange factor, double mutant A79R,R195A; also called Fes1RA; RA; source: E. coli expression, purified; not shown: GST, N-terminal, kept

Tests used:
Experiment in all cases: pull-down; His6-Fbp1 (wild type or mutant) pulled down on Talon metal affinity resin; reactions with two or all three proteins; 6 μg each of His6-Fbp1 (1.6 μM), Hsp70 (0.9 μM) and GST-Fes1 (1.09 μM), with or without ATP, ADP or AMP (2.5 mM); 50 mM Tris-HCl pH 7.5, 150 mM NaCl, 2% glycerol, 5 mM MgCl2; 30 min at 4°C; washed with 5 mM imidazole, eluted with 250 mM imidazole; stained SDS-PAGE gels, bands quantified …
Conditions in all cases: both partners purified
Ssa2 = target: T1, Ssa2 (yeast (S. cerevisiae), UniProt P10592 1-639)
T1 construct: Ssa2, yeast cytosolic Hsp70; non-tagged; also called Hsp70; source: E. coli Rosetta 2(DE3), purified as described [51]

Ssa1 = target: T2, Ssa1 (yeast (S. cerevisiae), UniProt P10591 1-642)
T2 construct: Ssa1, yeast cytosolic Hsp70; non-tagged; also called Hsp70; source: E. coli Rosetta 2(DE3), purified as described [51]

His6-Fbp1 = target: B4

T2 sequence (P10591 whole entry): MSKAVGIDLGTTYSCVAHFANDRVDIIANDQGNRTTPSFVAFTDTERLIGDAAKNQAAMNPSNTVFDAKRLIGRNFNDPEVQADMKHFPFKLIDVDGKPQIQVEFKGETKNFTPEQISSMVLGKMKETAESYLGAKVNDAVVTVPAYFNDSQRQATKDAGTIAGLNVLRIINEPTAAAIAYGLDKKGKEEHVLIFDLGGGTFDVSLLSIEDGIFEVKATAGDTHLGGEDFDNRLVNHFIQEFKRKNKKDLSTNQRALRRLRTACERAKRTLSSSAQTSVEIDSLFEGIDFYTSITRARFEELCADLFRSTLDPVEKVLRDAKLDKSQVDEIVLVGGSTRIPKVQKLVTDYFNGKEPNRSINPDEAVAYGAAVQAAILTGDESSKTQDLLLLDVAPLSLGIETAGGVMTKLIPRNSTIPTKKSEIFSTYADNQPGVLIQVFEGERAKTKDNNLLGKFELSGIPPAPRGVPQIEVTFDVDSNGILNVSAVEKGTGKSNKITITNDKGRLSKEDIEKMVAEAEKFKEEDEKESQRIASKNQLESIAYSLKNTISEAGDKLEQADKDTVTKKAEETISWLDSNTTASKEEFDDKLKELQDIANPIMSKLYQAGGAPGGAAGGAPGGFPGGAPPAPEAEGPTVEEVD
T1 sequence (P10592 whole entry): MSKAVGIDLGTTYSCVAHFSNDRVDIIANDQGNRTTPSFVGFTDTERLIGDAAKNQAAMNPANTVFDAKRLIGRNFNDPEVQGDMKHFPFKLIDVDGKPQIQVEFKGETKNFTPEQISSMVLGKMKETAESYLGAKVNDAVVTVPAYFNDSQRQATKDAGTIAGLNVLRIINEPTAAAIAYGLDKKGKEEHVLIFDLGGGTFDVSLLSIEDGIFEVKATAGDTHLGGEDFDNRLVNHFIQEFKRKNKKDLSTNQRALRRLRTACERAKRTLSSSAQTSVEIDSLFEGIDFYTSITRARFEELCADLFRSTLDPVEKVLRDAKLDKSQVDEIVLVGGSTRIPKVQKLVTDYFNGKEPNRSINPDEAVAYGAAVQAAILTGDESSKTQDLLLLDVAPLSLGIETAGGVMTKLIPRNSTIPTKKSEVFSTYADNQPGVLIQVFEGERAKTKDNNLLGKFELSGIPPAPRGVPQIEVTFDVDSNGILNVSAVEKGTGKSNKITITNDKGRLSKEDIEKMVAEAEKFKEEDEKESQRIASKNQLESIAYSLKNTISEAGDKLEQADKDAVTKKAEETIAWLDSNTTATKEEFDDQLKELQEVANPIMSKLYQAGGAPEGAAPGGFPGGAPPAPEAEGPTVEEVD

| Binder | binding result (Ssa2) | binding result (Ssa1) | further results |
| --- | --- | --- | --- |
| B1 | binds | binds |  |
| B2 | binds | binds |  |
| B3 | binds | binds |  |
| B4 | binds | binds |  |
| B5 |  |  | ratio of amounts Fes1^A79R,R195A/Ssa1 pulled down by Fbp1, no nucleotide (His6-Fbp1): 1.7; ratio of amounts Fes1^A79R,R195A/Ssa1 pulled down by Fbp1, with ADP (His6-Fbp1): 5; ratio of amounts Fes1^A79R,R195A/Ssa1 pulled down by Fbp1, with AMP (His6-Fbp1): 3.3; ratio of amounts Fes1^A79R,R195A/Ssa1 pulled down by Fbp1, with ATP (His6-Fbp1): 6.4; ratio of amounts Fes1^A79R,R195A/Ssa2 pulled down by Fbp1, no nucleotide (His6-Fbp1): 2.4; ratio of amounts Fes1^A79R,R195A/Ssa2 pulled down by Fbp1, with ADP (His6-Fbp1): 4.5; ratio of amounts Fes1^A79R,R195A/Ssa2 pulled down by Fbp1, with AMP (His6-Fbp1): 1.9; ratio of amounts Fes1^A79R,R195A/Ssa2 pulled down by Fbp1, with ATP (His6-Fbp1): 4.3 |
